Experimental data: publication PMC9860674

Target: Tle3^AIEC (type VI lipase effector 3 of adherent-invasive Escherichia coli LF82) (Escherichia coli AIEC LF82)
Test: SEC; purified Tle3 and Tli3 mixed at a molar ratio of 1:1.3; Superdex 200 16/60 in Hepes 10 mM pH 6.8, NaCl 150 mM; apparent molecular mass 100 kDa against a theoretical 101.9 kDa

## Tli3^AIEC (type VI lipase immunity protein 3 of adherent-invasive Escherichia coli LF82) (natural protein)
  stoichiometry N: 1
